Experimental data published in the supplement of paper PMC10567573.

B1: TRAF3IP2 (parent)
chain: YGHDYPRAAYQQVIQPALPGQPLP

Variants of: B1
Experiment: protein stability index of a GFP-peptide fusion (GPS, HEK-293T) (PSI 1-6); higher = more stable
Conditions: c terminus: a fixed tail appended
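Further: lentivirally expressed fusions sorted by FACS into six bins by GFP to DsRed ratio, PSI derived from sequencing read proportions per bin multiplied by bin number.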

| Variant | protein stability index |
| --- | --- |
| YGHDYPDAAYQQVIQPALPGQPLP | 3.34 |
| YGHDYPIAAYQQVIQPALPGQPLP | 2.51 |
| YGHDYPQAAYQQVIQPALPGQPLP | 2.56 |
| YGHDYPHAAYQQVIQPALPGQPLP | 2.36 |
| YGHDYPYAAYQQVIQPALPGQPLP | 2.28 |
| YGHDYPFAAYQQVIQPALPGQPLP | 2.2 |
| YGHDYPTAAYQQVIQPALPGQPLP | 2.6 |
| YGHDYPLAAYQQVIQPALPGQPLP | 2.27 |
| YGHDYPCAAYQQVIQPALPGQPLP | 2.44 |
| YGHDYPNAAYQQVIQPALPGQPLP | 2.82 |
| YGHDYPWAAYQQVIQPALPGQPLP | 2.41 |
| YGHDYPMAAYQQVIQPALPGQPLP | 2.27 |
| YGHDYPSAAYQQVIQPALPGQPLP | 2.65 |
| YGHDYPAAAYQQVIQPALPGQPLP | 2.46 |
| YGHDYPKAAYQQVIQPALPGQPLP | 2.18 |
| YGHDYPEAAYQQVIQPALPGQPLP | 3.87 |
| YGHDYPGAAYQQVIQPALPGQPLP | 2.58 |
| YGHDYPVAAYQQVIQPALPGQPLP | 2.56 |
| YGHDYPPAAYQQVIQPALPGQPLP | 2.41 |
| YGHDYVRAAYQQVIQPALPGQPLP | 1.56 |
| YGHDYERAAYQQVIQPALPGQPLP | 2.82 |
| YGHDYARAAYQQVIQPALPGQPLP | 2.44 |
| YGHDYFRAAYQQVIQPALPGQPLP | 1.81 |
| YGHDYSRAAYQQVIQPALPGQPLP | 2.6 |

| Variant | protein stability index |
| --- | --- |
| YGHDYDRAAYQQVIQPALPGQPLP | 3.52 |
| YGHDYMRAAYQQVIQPALPGQPLP | 1.79 |
| YGHDYYRAAYQQVIQPALPGQPLP | 2.96 |
| YGHDYKRAAYQQVIQPALPGQPLP | 2.9 |
| YGHDYIRAAYQQVIQPALPGQPLP | 1.69 |
| YGHDYGRAAYQQVIQPALPGQPLP | 3.41 |
| YGHDYLRAAYQQVIQPALPGQPLP | 1.73 |
| YGHDYQRAAYQQVIQPALPGQPLP | 2.27 |
| YGHDYTRAAYQQVIQPALPGQPLP | 2.73 |
| YGHDYWRAAYQQVIQPALPGQPLP | 1.48 |
| YGHDYRRAAYQQVIQPALPGQPLP | 1.99 |
| YGHDYNRAAYQQVIQPALPGQPLP | 2.55 |
| YGHDYCRAAYQQVIQPALPGQPLP | 2.26 |
| YGHDYHRAAYQQVIQPALPGQPLP | 1.93 |
| YGHDYPRANYQQVIQPALPGQPLP | 1.73 |
| YGHDYPRASYQQVIQPALPGQPLP | 1.71 |
| YGHDYPRACYQQVIQPALPGQPLP | 2.34 |
| YGHDYPRAPYQQVIQPALPGQPLP | 2.11 |
| YGHDYPRATYQQVIQPALPGQPLP | 1.97 |
| YGHDYPRAYYQQVIQPALPGQPLP | 2.02 |
| YGHDYPRALYQQVIQPALPGQPLP | 2.16 |
| YGHDYPRAHYQQVIQPALPGQPLP | 1.92 |
| YGHDYPRAWYQQVIQPALPGQPLP | 1.15 |
| YGHDYPRADYQQVIQPALPGQPLP | 2.74 |

| Variant | protein stability index |
| --- | --- |
| YGHDYPRAKYQQVIQPALPGQPLP | 2.4 |
| YGHDYPRAEYQQVIQPALPGQPLP | 2.38 |
| YGHDYPRAVYQQVIQPALPGQPLP | 2.04 |
| YGHDYPRAMYQQVIQPALPGQPLP | 1.98 |
| YGHDYPRARYQQVIQPALPGQPLP | 2.4 |
| YGHDYPRAGYQQVIQPALPGQPLP | 2.45 |
| YGHDYPRAIYQQVIQPALPGQPLP | 1.52 |
| YGHDYPRAQYQQVIQPALPGQPLP | 2.2 |
| YGHDYPRAFYQQVIQPALPGQPLP | 2.15 |
| YGHDYPRAAEQQVIQPALPGQPLP | 2.17 |
| YGHDYPRAAFQQVIQPALPGQPLP | 2.33 |
| YGHDYPRAAAQQVIQPALPGQPLP | 1.79 |
| YGHDYPRAADQQVIQPALPGQPLP | 1.97 |
| YGHDYPRAAHQQVIQPALPGQPLP | 2.52 |
| YGHDYPRAAGQQVIQPALPGQPLP | 1.91 |
| YGHDYPRAACQQVIQPALPGQPLP | 2.39 |
| YGHDYPRFAYQQVIQPALPGQPLP | 2.94 |
| YGHDYPRDAYQQVIQPALPGQPLP | 2.43 |
| YGHDYPRKAYQQVIQPALPGQPLP | 2.14 |
| YGHDYPRHAYQQVIQPALPGQPLP | 3.06 |
| YGHDYPRTAYQQVIQPALPGQPLP | 2.8 |
| YGHDYPREAYQQVIQPALPGQPLP | 2.03 |
| YGHDYPRLAYQQVIQPALPGQPLP | 2.7 |
| YGHDYPRIAYQQVIQPALPGQPLP | 2.57 |

| Variant | protein stability index |
| --- | --- |
| YGHDYPRQAYQQVIQPALPGQPLP | 2.65 |
| YGHDYPRSAYQQVIQPALPGQPLP | 1.93 |
| YGHDYPRCAYQQVIQPALPGQPLP | 1.94 |
| YGHDYPRGAYQQVIQPALPGQPLP | 2.18 |
| YGHDYPRRAYQQVIQPALPGQPLP | 3.2 |
| YGHDYPRWAYQQVIQPALPGQPLP | 2.64 |
| YGHDYPRNAYQQVIQPALPGQPLP | 2.3 |
| YGHDYPRYAYQQVIQPALPGQPLP | 2.24 |
| YGHDYPRVAYQQVIQPALPGQPLP | 2.59 |
| YGHDYPRPAYQQVIQPALPGQPLP | 2.35 |
| YGHDYPRMAYQQVIQPALPGQPLP | 1.76 |
| YGHDLPRAAYQQVIQPALPGQPLP | 3.58 |
| YGHDTPRAAYQQVIQPALPGQPLP | 3.79 |
| YGHDQPRAAYQQVIQPALPGQPLP | 3.83 |
| YGHDPPRAAYQQVIQPALPGQPLP | 3.99 |
| YGHDSPRAAYQQVIQPALPGQPLP | 4.1 |
| YGHDWPRAAYQQVIQPALPGQPLP | 3.66 |
| YGHDNPRAAYQQVIQPALPGQPLP | 3.73 |
| YGHDMPRAAYQQVIQPALPGQPLP | 3.27 |
| YGHDRPRAAYQQVIQPALPGQPLP | 3.49 |
| YGHDVPRAAYQQVIQPALPGQPLP | 3.46 |
| YGHDKPRAAYQQVIQPALPGQPLP | 3.86 |
